Laboratory results: doi:10.1101/2022.03.31.486616

Molecular target: E. cloacae Cap2 (C109A/C548A), catalytically dead (E. cloacae)
Assay: cryo-EM structure

## E. cloacae Cap2 (C109A/C548A), catalytically dead (enzyme)
  stoichiometry N: 2
